# Test results from US5789157.
# Tested on: unidentified red blood cell ghost membrane protein, apparent 105 kDa (target of c56t) (Homo sapiens)
# Assay: filter
# Conditions: Scatchard on whole RBC ghosts, estimated, 1900 sites per cell; target taken as the 105 kDa protein from crosslinking
sequence,measurement,value
AACTCAGTGGTAGGTAACGGTT [C56T (22-nt truncate of clone 56)],Kd,0.042 nM
